Experimental data reported in patent US20250313605A1.
*1 amine or outer side, *2 acyl side, *3 side chain or, on linkers, in order; H or OH if unused. Where no end group is shown, it is not given here. Side-chain parts run from the residue outwards. [ ]: non-standard residue; d: D form. The star is where a group is joined. C20 diacid = O=C(O)CCCCCCCCCCCCCCCCCCC(=O)*; γGlu = O=C(O)[C@H](CCC(=O)[*:2])N[*:1]; αMeL = CC(C)C[C@](C)(N)C(=O)O; αMeK = C[C@](N)(CCCCN)C(=O)O; AEEA = NCCOCCOCC(=O)O; Aib = CC(C)(N)C(=O)O

T1: human GLP-1 receptor (human), P43220
T1 chain: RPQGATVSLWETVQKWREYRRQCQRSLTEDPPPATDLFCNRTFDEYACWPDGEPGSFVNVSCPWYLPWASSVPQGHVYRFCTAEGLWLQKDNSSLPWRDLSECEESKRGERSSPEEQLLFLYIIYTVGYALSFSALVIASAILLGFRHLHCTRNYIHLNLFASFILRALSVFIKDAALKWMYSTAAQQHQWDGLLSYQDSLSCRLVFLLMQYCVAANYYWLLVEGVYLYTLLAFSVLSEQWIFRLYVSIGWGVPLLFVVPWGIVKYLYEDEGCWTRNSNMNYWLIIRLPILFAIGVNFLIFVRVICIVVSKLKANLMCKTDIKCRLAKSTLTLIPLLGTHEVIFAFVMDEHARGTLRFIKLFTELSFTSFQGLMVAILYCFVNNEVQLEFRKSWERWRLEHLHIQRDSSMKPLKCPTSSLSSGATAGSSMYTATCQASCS

T2: human GIP receptor (human), P48546
T2 chain: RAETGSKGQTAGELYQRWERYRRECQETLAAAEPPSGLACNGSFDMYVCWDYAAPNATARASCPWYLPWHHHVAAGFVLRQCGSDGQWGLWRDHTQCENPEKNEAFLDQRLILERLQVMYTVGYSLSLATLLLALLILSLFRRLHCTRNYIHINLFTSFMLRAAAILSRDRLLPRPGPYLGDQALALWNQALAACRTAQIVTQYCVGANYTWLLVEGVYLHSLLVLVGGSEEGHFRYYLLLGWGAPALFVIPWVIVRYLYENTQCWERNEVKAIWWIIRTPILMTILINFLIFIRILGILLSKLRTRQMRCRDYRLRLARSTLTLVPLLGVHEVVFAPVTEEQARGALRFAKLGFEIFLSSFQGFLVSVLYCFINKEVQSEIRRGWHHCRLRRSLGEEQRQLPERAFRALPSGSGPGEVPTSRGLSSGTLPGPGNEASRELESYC

B1: Example 1 (peptide)
peptide: H-Y[Aib]QGTFTSDYSI[αMeL]LDKK([AEEA-AEEA-γGlu-C20 diacid])AQ[αMeK]AFIEYLLA[Aib]GPSSGAPPPS-NH2
SMILES: CC[C@H](C)[C@H](NC(=O)[C@H](Cc1ccccc1)NC(=O)[C@H](C)NC(=O)[C@](C)(CCCCN)NC(=O)[C@H](CCC(N)=O)NC(=O)[C@H](C)NC(=O)[C@H](CCCCNC(=O)COCCOCCNC(=O)COCCOCCNC(=O)CC[C@H](NC(=O)CCCCCCCCCCCCCCCCCCC(=O)O)C(=O)O)NC(=O)[C@H](CCCCN)NC(=O)[C@H](CC(=O)O)NC(=O)[C@H](CC(C)C)NC(=O)[C@](C)(CC(C)C)NC(=O)[C@@H](NC(=O)[C@H](CO)NC(=O)[C@H](Cc1ccc(O)cc1)NC(=O)[C@H](CC(=O)O)NC(=O)[C@H](CO)NC(=O)[C@@H](NC(=O)[C@H](Cc1ccccc1)NC(=O)[C@@H](NC(=O)CNC(=O)[C@H](CCC(N)=O)NC(=O)C(C)(C)NC(=O)[C@@H](N)Cc1ccc(O)cc1)[C@@H](C)O)[C@@H](C)O)[C@@H](C)CC)C(=O)N[C@@H](CCC(=O)O)C(=O)N[C@@H](Cc1ccc(O)cc1)C(=O)N[C@@H](CC(C)C)C(=O)N[C@@H](CC(C)C)C(=O)N[C@@H](C)C(=O)NC(C)(C)C(=O)NCC(=O)N1CCC[C@H]1C(=O)N[C@@H](CO)C(=O)N[C@@H](CO)C(=O)NCC(=O)N[C@@H](C)C(=O)N1CCC[C@H]1C(=O)N1CCC[C@H]1C(=O)N1CCC[C@H]1C(=O)N[C@@H](CO)C(N)=O
B2: Example 2 (peptide)
peptide: Y[Aib]QGTFTSDYSI[αMeL]LDKK([AEEA-γGlu-C20 diacid])AQHAFIEYLLA[Aib]GPSSGAPPPS-NH2
modifications: N-terminus assumed
SMILES: CC[C@H](C)[C@H](NC(=O)[C@H](Cc1ccccc1)NC(=O)[C@H](C)NC(=O)[C@H](Cc1c[nH]cn1)NC(=O)[C@H](CCC(N)=O)NC(=O)[C@H](C)NC(=O)[C@H](CCCCNC(=O)COCCOCCNC(=O)CC[C@H](NC(=O)CCCCCCCCCCCCCCCCCCC(=O)O)C(=O)O)NC(=O)[C@H](CCCCN)NC(=O)[C@H](CC(=O)O)NC(=O)[C@H](CC(C)C)NC(=O)[C@](C)(CC(C)C)NC(=O)[C@@H](NC(=O)[C@H](CO)NC(=O)[C@H](Cc1ccc(O)cc1)NC(=O)[C@H](CC(=O)O)NC(=O)[C@H](CO)NC(=O)[C@@H](NC(=O)[C@H](Cc1ccccc1)NC(=O)[C@@H](NC(=O)CNC(=O)[C@H](CCC(N)=O)NC(=O)C(C)(C)NC(=O)[C@@H](N)Cc1ccc(O)cc1)[C@@H](C)O)[C@@H](C)O)[C@@H](C)CC)C(=O)N[C@@H](CCC(=O)O)C(=O)N[C@@H](Cc1ccc(O)cc1)C(=O)N[C@@H](CC(C)C)C(=O)N[C@@H](CC(C)C)C(=O)N[C@@H](C)C(=O)NC(C)(C)C(=O)NCC(=O)N1CCC[C@H]1C(=O)N[C@@H](CO)C(=O)N[C@@H](CO)C(=O)NCC(=O)N[C@@H](C)C(=O)N1CCC[C@H]1C(=O)N1CCC[C@H]1C(=O)N1CCC[C@H]1C(=O)N[C@@H](CO)C(N)=O

Columns and labels:
[1] = target: T1, human GLP-1 receptor (human), P43220; assay: radioligand competition SPA, HEK293 membranes
[2] = target: T2, human GIP receptor (human), P48546; assay: radioligand competition SPA, HEK293 membranes
[3] = target: human glucagon receptor (human), P47871; assay: radioligand competition SPA, HEK293 membranes
Chain of human glucagon receptor (human), P47871 (P47871 26-477): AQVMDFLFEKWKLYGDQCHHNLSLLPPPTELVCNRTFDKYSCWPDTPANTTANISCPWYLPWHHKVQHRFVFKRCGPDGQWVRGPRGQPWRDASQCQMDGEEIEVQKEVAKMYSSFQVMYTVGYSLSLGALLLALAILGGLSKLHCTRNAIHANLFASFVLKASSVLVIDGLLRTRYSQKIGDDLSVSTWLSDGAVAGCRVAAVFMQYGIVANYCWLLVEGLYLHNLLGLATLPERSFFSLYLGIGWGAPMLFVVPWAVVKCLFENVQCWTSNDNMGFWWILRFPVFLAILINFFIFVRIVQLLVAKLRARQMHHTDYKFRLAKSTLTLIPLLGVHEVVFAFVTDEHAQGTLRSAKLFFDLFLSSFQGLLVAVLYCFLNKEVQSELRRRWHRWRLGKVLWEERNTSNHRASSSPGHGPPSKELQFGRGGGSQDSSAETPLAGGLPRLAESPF

[4] = target: T1, human GLP-1 receptor (human), P43220; assay: cell-based or functional assay
[5] = target: T2, human GIP receptor (human), P48546; assay: cell-based or functional assay
[6] = target: human glucagon receptor (human), P47871; assay: cell-based or functional assay

Binder	Ki [1]	Ki [2]	Ki [3]	cAMP EC50 (0.1% casein) [4]	cAMP EC50 (FBS and BSA present) [4]	cAMP EC50 (0.1% casein) [5]	cAMP EC50 (FBS and BSA present) [5]	cAMP EC50 (0.1% casein) [6]	cAMP EC50 (FBS and BSA present) [6]
B1	2.64 nM	0.0469 nM	8.41 nM	0.153 nM	7.49 nM	0.0523 nM	0.914 nM	0.114 nM	2.54 nM
B2	4.5 nM	0.0665 nM	3.71 nM	0.207 nM	12.8 nM	0.0474 nM	2.19 nM	0.0553 nM	2.66 nM
